Measurements as given in patent US20120028347A1 (TOKAI UNIVERSITY EDUCATIONAL SYSTEM, published 2012).

What was measured:
[1] = target: T1, baculovirus-derived recombinant human CD4 (rhCD4) (human, UniProt P01730 26-396, limits assumed); test: ELISA, purified Fab on coated rhCD4
T1 construct: Bought reagent, coated on ELISA plates at 50 ng/well
Description: (§1) The rhCD4 was dissolved in a 50 mM carbonate buffer (pH 9.6) solution to a concentration of 2 μg/mL, and the thus prepared solution was dispensed in an amount of 50 μL each into the wells on an ELISA plate, and it was then left at 4° C. overnight. Thereafter, the wells were washed with PBS-T (PBS-0.05% Tween) once. Then, 300 μL of PBS-T-SM (PBS-T-1% skim milk) was added thereto, so as to block it at room temperature for 1 hour. Subsequently, the PBS-T-SM was removed, 50 μL of an antibody sample diluted with PBS-T-SM was then added thereto, and the mixture was then left at room temperature for 1 hour. Thereafter, the sample was removed, and the residue was then washed with PBS-T three times. A PO-bound anti-human IgG-Fab antibody was diluted with PBS-T at a ratio of 1:2000, and 50 μL of the thus diluted solution was then added to the wells. The obtained mixture was left at room temperature for 1 hour. Thereafter, the secondary antibody was removed, and the residue was then washed with PBS-T three times. 50 μL of a TMB reagent was added to the resultant, so as to develop color. The color was measured at OD of 650 nm.
(§2) The percentage of peripheral B cells producing human CD4-reactive antibodies in total peripheral B cells was assumed to be approximately 0.0013%. The binding of the IgM Fab of each of the purified three clones to rhCD4 was examined by ELISA (FIG. 2).

[2] = target: T1, baculovirus-derived recombinant human …; test: ELISA, purified Fab on coated rhCD4 (50 ng/well); amount of antibody at OD650 of about 0.7 to 0.8, where 50% of the maximum binding was observed
Description: as §1, with “Thereafter,” for “The rhCD4 was dissolved in a 50 mM carbonate buffer (pH 9.6) solution to a concentration of 2 μg/mL, and the thus prepared solution was dispensed in an amount of 50 μL each into the wells on an ELISA plate, and it was then left at 4° C. overnight. Thereafter,”
as §2

B1: HO538-213 (Fab, V domains shown)
VH: QVQLVQSGGGVVQPGRSLRLSCAASGFTFSSYGMHWVRQAPGKGLEWVAVVCYDGRTTYYADSVKGRFTISRDISENTLYLQMNSLRAEDTAVYYCAKDLNKGYCNNGGCYGVDCWGQGTLVTVSS
VL: EIVMTQSPATLSLSPGERATLSCRASQSVNNYLAWYQQRPGQAPSLLIYDASNRATGIPARFSGSGSGTDFTLTISSLEPEDFAVYYCQQRGNWPHTFGQGTKLEIKR
notes: Human IgM Fab (mu Fd and kappa light chain) expressed in E. coli JM109 from the vector pFab1-His2 and purified on an anti-Fab column; No sentence says it outright
affinity relative to the other clones (HO702-001 and HO702-016) [1]: 0.125 fold
EC50 [2]: ~8 µg/mL
